Measured values from paper PMC5673899, “Structural basis for receptor recognition of pollen tube attraction peptides” (Nature Communications, 2017).
“Also recorded” adds a separate entry of the source.

Tests used:
[1] = molecular target: AtPRK6^LRR; test: ITC, AtLURE1.2 titrated into AtPRK6^LRR; parameters: species or system Arabidopsis thaliana; details: MicroCalorimeter ITC200, 25 °C, 200 mM HEPES pH 7.0, 100 mM NaCl, ~0.9 mM AtLURE1.2 into 0.08 mM AtPRK6^LRR, 20 × 2 μl at 2.5-min intervals, insect cell proteins, read-out: dissociation constant / binding affinity
Excerpt: (§1) The genes of AtPRK3 ^LRR (residues 1–241), AtPRK4 ^LRR (residues 1–277), AtPRK5 ^LRR (residues 1–279), AtPRK6 ^LRR (residues 1–262), MIK1 ^LRR (residues 1–633), MIK2 ^LRR (residues 1–707) were amplified from Arabidopsis cDNA library by PCR and cloned into pFastBac-1 vector with a C-terminal 6 × His-tag. Their identities were confirmed by sequencing. The mature form of AtLURE1.1 (residues 20–94), AtLURE1.2 (residues 20–90), AtLURE1.3 (residues 21–91), and AtLURE1.4 (residues 20–90) were cloned into pFastBac-1 vector, with a modified N-terminal hemolin signal peptide and 6 × His-SUMO tag. Point mutation constructs were generated by QuickChange Site-Directed Mutagenesis Kit (Strategene). All the proteins were expressed using the Bac-to-Bac baculovirus expression system (Invitrogen) in High Five cells at 22 °C. One liter of High Five cells (2.0 × 10^6 cells mL^−1) cultured in the medium from Expression Systems was infected with 25 ml recombinant baculovirus and the media was collected after 72 h of infection. Secreted LRR proteins were purified using Ni-NTA (Novagen) and size-exclusion chromatography (Hiload 200, GE Healthcare) in buffer containing 10 mM Bis-Tris pH 6.0 and 100 mM NaCl. The His-SUMO tag of the AtLURE proteins was removed by Prescission Protease at 4 °C overnight in buffer containing 25 mM Tris pH 8.0 and 150 mM NaCl. […]

[2] = tested on: AtPRK6^LRR with mutations of other AtLURE1.2-interacting residues; test: In vitro pull-down with other AtPRK6^LRR mutants; assay type: binding, Arabidopsis thaliana; details: mutations of other AtLURE1.2-interacting residues of AtPRK6^LRR
Excerpt: as §1, with “NaCl.” for “NaCl. The His-SUMO tag of the AtLURE proteins was removed by Prescission Protease at 4 °C overnight in buffer containing 25 mM Tris pH 8.0 and 150 mM NaCl.”
The purified His-tagged ectodomains of AtPRK proteins and MIK1, 2 were used to pull-down the AtLURE1.2 peptide. […] All the eluted samples were analyzed by SDS-PAGE and visualized by Coomassie blue staining. […]

[3] = tested on: prk6 pollen tubes transformed with PRK6 D234A; test: Wavy assay, prk6 pollen tubes transformed with D234A PRK6; assay type: cell-based, Arabidopsis; details: 250 nM wild-type AtLURE1.2 in medium
Experimental: (§2) Attraction activities of mutant AtLURE1.2 peptides were examined for semi-in-vivo pollen tubes growing through cut, pollinated pistils by gelatin-beads assay and wavy assay, [20]. For the gelatin-beads assay, pollen tubes were grown on solid pollen germination medium poured into a mold made with 1-mm thick silicone rubber and cover glasses. After hand-pollination, the topside cover glass was removed and the medium was covered with hydrated silicone oil (KF-96–100CS; Shin-Etsu). Attraction of pollen tubes toward the peptide was evaluated using AtLURE1 peptide containing gelatine beads under an inverted microscope (IX71, Olympus) equipped with a micro-manipulator (Narishige). For the AtLURE1-responsive wavy assay, the purified AtLURE1.2 peptide was added to solid pollen germination medium, which was melted at 70 °C and then cooled to a certain degree. The mixture was mixed by vortexing and poured into the mold. Pollen tubes of each genotype were grown through cut styles, as mentioned above. Each peptide (25 μM in 10 mM Bis-Tris (pH 6.0) and 100 mM NaCl) was diluted to 250 nM by cultivation medium in both assays. […]
(§3) pollen tubes. Fluorescence is from mRuby2 fused to the C-terminal of PRK6 receptors, showing that all of mutant PRK6 receptors localize normally to the plasma membrane of the pollen tube tip. […]

[4] = tested on: prk6 pollen tubes transformed with PRK6 ΔN239I240; test: Wavy assay, prk6 pollen tubes transformed with ΔN239I240 PRK6; assay type: cell-based, Arabidopsis; details: 250 nM wild-type AtLURE1.2 in medium
Experimental: as §2, §3

B1: AtLURE1.2: mature form of AtLURE1.2 (residues 20–90), defensin-like cysteine-rich peptide expressed in insect cells (protein)
chain: TLINGSSDEERTYSFSPTTSPFDPRSLNQELKIGRIGYCFDCARACMRRGKYIRTCSFERKLCRCSISDIK
modifications: left off: His6, N-terminal, cleaved | SUMO, N-terminal, cleaved
notes: mature form of AtLURE1.2 (residues 20–90), defensin-like cysteine-rich peptide expressed in insect cells
Kd [1]: ~3000 nM | interaction in pull-down assay [2]: much less striking effects | wavy and branched pollen tube behavior [3]: branched behavior is not observed; also recorded: greatly compromised | wavy and branched pollen tube behavior [4]: branched behavior is not observed; also recorded: greatly compromised
